Positions of bridges follow the written chain, without caps; N, C: chain ends. No end group written: not given here.
B1: ACE-2 binding polypeptide LEMCEALFCVEF (peptide)
peptide: LEMCEALFCVEF
modifications: disulfide 4-9 (inferred); not fully specified (N-terminus, C-terminus)
B2: ACE-2 binding polypeptide MDHCTWYQPCVLK (peptide)
peptide: MDHCTWYQPCVLK
modifications: not fully specified (bridges); cysteine pairing not given here
B3: ACE-2 binding polypeptide EHNCTWWNPCWTT (peptide)
peptide: EHNCTWWNPCWTT
modifications: not fully specified (bridges); cysteine pairing not given here
B4: ACE-2 binding polypeptide YEFCHYAPQECKHM (peptide)
peptide: YEFCHYAPQECKHM
modifications: not fully specified (bridges); cysteine pairing not given here
B5: ACE-2 binding polypeptide WQFCFDWDLNCDLR (peptide)
peptide: WQFCFDWDLNCDLR
modifications: not fully specified (bridges); cysteine pairing not given here
B6: ACE-2 binding polypeptide VYFCFDWEQDCDEM (peptide)
peptide: VYFCFDWEQDCDEM
modifications: not fully specified (N-terminus, C-terminus, bridges); cysteine pairing not given here
B7: ACE-2 binding polypeptide YQFCFDWETTCWLD (peptide)
peptide: YQFCFDWETTCWLD
modifications: not fully specified (bridges); cysteine pairing not given here
B8: ACE-2 binding polypeptide YEECHWRPMACSTH (peptide)
peptide: YEECHWRPMACSTH
modifications: not fully specified (bridges); cysteine pairing not given here
B9: ACE-2 binding polypeptide WAVCFDWEN-CGDK (peptide)
peptide: WAVCFDWENCGDK
modifications: not fully specified (bridges); printed as W A V C F D W E N - C G D K; cysteine pairing not given here
notes: one position printed as '-'
B10: ACE-2 binding polypeptide WEVCHWAPMMCKHG (peptide)
peptide: WEVCHWAPMMCKHG
modifications: not fully specified (N-terminus, C-terminus, bridges); cysteine pairing not given here
B11: ACE-2 binding polypeptide SDWCGTWNNPCFHQ (peptide)
peptide: SDWCGTWNNPCFHQ
modifications: not fully specified (N-terminus, C-terminus, bridges); cysteine pairing not given here
B12: ACE-2 binding polypeptide YWFCFDWEEDANGHCGGN (peptide)
peptide: YWFCFDWEEDANGHCGGN
modifications: not fully specified (bridges); cysteine pairing not given here
B13: ACE-2 binding polypeptide WDHCNWAHPCSRK (peptide)
peptide: WDHCNWAHPCSRK
modifications: not fully specified (bridges); cysteine pairing not given here
B14: ACE-2 binding polypeptide QKECKFGYPHCLPW (peptide)
peptide: QKECKFGYPHCLPW
modifications: not fully specified (N-terminus, C-terminus, bridges); cysteine pairing not given here
B15: ACE-2 binding polypeptide FQLCFDWEEECEES (peptide)
peptide: FQLCFDWEEECEES
modifications: not fully specified (bridges); cysteine pairing not given here
B16: ACE-2 binding polypeptide FLLCFDWDIDWEYGCQHH (peptide)
peptide: FLLCFDWDIDWEYGCQHH
modifications: not fully specified (bridges); cysteine pairing not given here

Each binder was assayed against T1, FLAG-tagged ACE-2 target (human, UniProt Q9BYF1 18-740) (assay: phage ELISA on FLAG-ACE-2).
T1 construct: range 1-740; obtained from Human Genome Sciences, Inc; also called FLAG-ACE-2; tagged human ACE-2; not shown: FLAG tag
T1 sequence (Q9BYF1 18-740 limits assumed): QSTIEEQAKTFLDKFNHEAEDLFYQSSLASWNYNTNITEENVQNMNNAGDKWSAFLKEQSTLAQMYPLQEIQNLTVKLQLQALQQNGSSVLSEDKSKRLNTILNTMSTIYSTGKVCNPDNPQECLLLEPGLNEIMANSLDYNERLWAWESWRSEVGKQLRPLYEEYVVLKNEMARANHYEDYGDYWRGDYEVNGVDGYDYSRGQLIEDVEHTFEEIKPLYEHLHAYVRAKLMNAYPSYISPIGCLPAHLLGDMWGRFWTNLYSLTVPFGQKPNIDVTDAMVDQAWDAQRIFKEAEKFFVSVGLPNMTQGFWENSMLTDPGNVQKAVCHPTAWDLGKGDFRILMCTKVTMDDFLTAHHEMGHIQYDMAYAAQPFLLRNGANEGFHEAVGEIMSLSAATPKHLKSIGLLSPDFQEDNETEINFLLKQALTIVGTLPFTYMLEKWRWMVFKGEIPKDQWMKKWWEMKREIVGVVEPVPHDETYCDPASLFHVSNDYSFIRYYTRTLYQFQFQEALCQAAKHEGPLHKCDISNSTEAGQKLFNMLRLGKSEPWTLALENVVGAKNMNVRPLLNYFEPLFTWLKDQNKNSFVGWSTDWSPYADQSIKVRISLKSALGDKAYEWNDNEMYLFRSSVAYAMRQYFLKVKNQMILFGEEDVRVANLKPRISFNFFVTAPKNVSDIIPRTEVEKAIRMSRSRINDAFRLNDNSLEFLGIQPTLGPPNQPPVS
Procedure: Phage enriched from the third round of selection were screened by ELISA for strong ACE-2 binders. Immulon 2 96-well plates (Dynatech) were coated with streptavidin for 1 hour at 37° C. and subsequently coated with anti-FLAG antibody for 1 hour at room temperature. Half of the plates were further coated with FLAG-ACE-2 as the target plates, and the other half of the plates were coated with FLAG peptide as background plates. The amount of each protein or peptide coated was 100 ng per well. The coated plates were then incubated for 1 hour at room temperature with 1:2 diluted overnight phage cultures that were made by inoculating phage from individual plaques into bacterial host cells. After being washed 7 times with PBST, the plates were incubated with HRP-conjugated anti-M13 antibody (Pharmacia) for 1 hour at room temperature, washed 5 times, developed with TMB peroxidase substrate solution (Kirkegaad & Perry Laboratories, Gaithersburg, Md.), and read at 630 nm on an ELISA plate reader.
B1: binds.
B2: binds.
B3: binds.
B4: binds.
B5: binds.
B6: binds.
B7: binds.
B8: binds.
B9: binds.
B10: binds.
B11: binds.
B12: binds.
B13: binds.
B14: binds.
B15: binds.
B16: binds.

Reference: patent publication US20030138894A1 (Human Genome Sciences, published 2003)
